US10314894B2, “Treatment of cardio-renal disease using PCSK6” (THE CLEVELAND CLINIC FOUNDATION, priority 2014, dated 2019)

Columns and labels:
corin variant T555I = target: T1, corin variant T555I (Homo sapiens, UniProt Q9Y5Q5, T555I); assay: PCSK6-mediated corin activation in HEK293 cells, corin variant T555I; format: cell-based; conditions: Western
T1 construct: expressed in transfected cells; host or cells: HEK293
T1 sequence (Q9Y5Q5 1-1042 T555I): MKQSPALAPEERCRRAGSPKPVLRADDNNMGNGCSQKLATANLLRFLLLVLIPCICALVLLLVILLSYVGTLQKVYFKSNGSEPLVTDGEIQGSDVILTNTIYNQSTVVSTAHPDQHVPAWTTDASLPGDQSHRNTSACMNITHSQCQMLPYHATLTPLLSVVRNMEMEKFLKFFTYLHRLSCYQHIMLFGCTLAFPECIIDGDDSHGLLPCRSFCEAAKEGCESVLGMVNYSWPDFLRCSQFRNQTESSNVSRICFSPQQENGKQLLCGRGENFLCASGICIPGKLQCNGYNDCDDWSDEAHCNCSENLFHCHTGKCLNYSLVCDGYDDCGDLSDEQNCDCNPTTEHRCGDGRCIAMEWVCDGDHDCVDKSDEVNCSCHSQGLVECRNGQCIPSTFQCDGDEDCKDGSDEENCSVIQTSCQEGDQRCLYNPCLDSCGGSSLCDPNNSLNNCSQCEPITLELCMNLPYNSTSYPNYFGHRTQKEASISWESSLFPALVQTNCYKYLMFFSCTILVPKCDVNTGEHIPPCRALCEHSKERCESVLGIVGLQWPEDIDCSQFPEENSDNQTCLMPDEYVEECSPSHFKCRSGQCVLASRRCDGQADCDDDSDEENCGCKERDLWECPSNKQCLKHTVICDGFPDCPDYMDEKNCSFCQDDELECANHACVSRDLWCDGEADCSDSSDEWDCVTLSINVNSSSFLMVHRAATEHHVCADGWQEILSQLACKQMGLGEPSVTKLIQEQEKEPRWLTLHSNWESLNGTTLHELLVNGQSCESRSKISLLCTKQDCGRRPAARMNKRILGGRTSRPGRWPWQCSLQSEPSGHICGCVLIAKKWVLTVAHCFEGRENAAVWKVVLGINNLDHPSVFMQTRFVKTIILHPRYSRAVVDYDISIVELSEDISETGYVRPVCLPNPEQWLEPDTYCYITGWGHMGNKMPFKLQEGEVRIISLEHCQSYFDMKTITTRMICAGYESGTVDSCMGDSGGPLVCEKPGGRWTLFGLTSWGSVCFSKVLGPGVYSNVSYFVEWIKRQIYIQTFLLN
From the text: (§1) Plasmids expressing human corin WT and mutants R801A, S985A, T555I, Q568P, T555I/Q568P, K317E, S472G and R539C were reported previously. Dong, N. et al., J Biol Chem 289, 17909-17916 (2014); Knappe et al., J Biol Chem 278, 52363-52370 (2003); Wu et al., J Biol Chem 277, 16900-16905. (2002). Plasmids expressing human PCSK1-9 were made by cloning respective cDNAs into pcNDA3.1 vector. Recombinant corin and PCSK proteins encoded by these plasmids contained a C-terminal V5 or flag tag for protein detection in Western blotting.
(§2) HEK293 and HL-1 cells were transfected with corin or PCSK6 expression plasmids. After 48-72 h, cells were lysed in a buffer containing 25 mM Tris-HCl, pH 7.4, 150 mM NaCl, 1 mM EDTA, 1% (v/v) NP-40, and 1% (v/v) protease inhibitor cocktail. Recombinant corin and PCSK6 proteins were immunoprecipitated with an anti-V5 or anti-flag antibody. Western blotting was carried out to analyze corin expression and activation or PCSK6 expression with or without reducing agents. Percentage of corin activation (corin-p vs. corin fragments) was quantified by densitometric analysis of Western blots.

[1] = target: T2, corin variant T555I/Q568P (Homo sapiens, UniProt Q9Y5Q5, Q568P/T555I); assay: PCSK6-mediated corin activation in HEK293 cells, corin variant T555I/Q568P; format: cell-based; conditions: corin T555I/Q568P mutant, Western, densitometry
T2 construct: expressed in transfected cells; host or cells: HEK293
T2 sequence (Q9Y5Q5 1-1042 T555I/Q568P): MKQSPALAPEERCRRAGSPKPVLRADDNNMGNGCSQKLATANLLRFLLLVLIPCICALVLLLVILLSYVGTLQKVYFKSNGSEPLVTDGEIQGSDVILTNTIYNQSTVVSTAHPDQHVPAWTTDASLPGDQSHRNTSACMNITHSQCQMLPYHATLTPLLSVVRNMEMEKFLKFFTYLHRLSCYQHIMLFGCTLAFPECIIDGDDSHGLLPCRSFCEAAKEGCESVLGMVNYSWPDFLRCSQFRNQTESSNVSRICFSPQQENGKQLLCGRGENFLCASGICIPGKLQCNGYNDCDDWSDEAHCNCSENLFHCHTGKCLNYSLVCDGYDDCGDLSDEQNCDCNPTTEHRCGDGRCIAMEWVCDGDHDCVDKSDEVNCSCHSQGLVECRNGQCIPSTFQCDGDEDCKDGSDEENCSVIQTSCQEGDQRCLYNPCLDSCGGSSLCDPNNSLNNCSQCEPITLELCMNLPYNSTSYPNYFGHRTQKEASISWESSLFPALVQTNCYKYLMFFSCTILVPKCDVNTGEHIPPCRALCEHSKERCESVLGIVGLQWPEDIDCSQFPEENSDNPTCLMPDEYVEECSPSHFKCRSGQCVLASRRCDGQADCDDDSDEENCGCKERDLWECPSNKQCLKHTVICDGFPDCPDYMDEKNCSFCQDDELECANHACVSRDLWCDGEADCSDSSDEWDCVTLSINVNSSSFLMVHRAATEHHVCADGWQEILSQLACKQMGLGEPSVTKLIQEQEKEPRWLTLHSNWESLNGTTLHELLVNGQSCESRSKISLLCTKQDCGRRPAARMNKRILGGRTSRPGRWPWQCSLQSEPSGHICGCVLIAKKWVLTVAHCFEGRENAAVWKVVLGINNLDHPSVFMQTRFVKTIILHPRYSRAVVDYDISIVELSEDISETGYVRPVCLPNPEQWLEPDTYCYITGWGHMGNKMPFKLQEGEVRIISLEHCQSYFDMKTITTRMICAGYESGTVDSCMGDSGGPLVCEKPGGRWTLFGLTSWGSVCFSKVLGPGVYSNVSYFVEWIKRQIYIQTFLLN
From the text: as §1, §2

B1: proprotein convertase subtilisin/kexin-6 (protein, listed as Homo sapiens)
chain: MPPRAPPAPGPRPPPRAAAATDTAAGAGGAGGAGGAGGPGFRPLAPRPWRWLLLLALPAACSAPPPRPVYTNHWAVQVLGGPAEADRVAAAHGYLNLGQIGNLEDYYHFYHSKTFKRSTLSSRGPHTFLRMDPQVKWLQQQEVKRRVKRQVRSDPQALYFNDPIWSNMWYLHCGDKNSRCRSEMNVQAAWKRGYTGKNVVVTILDDGIERNHPDLAPNYDSYASYDVNGNDYDPSPRYDASNENKHGTRCAGEVAASANNSYCIVGIAYNAKIGGIRMLDGDVTDVVEAKSLGIRPNYIDIYSASWGPDDDGKTVDGPGRLAKQAFEYGIKKGRQGLGSIFVWASGNGGREGDYCSCDGYTNSIYTISVSSATENGYKPWYLEECASTLATTYSSGAFYERKIVTTDLRQRCTDGHTGTSVSAPMVAGIIALALEANSQLTWRDVQHLLVKTSRPAHLKASDWKVNGAGHKVSHFYGFGLVDAEALVVEAKKWTAVPSQHMCVAASDKRPRSIPLVQVLRTTALTSACAEHSDQRVVYLEHVVVRTSISHPRRGDLQIYLVSPSGTKSQLLAKRLLDLSNEGFTNWEFMTVHCWGEKAEGQWTLEIQDLPSQVRNPEKQGKLKEWSLILYGTAEHPYHTFSAHQSRSRMLELSAPELEPPKAALSPSQVEVPEDEEDYTAQSTPGSANILQTSVCHPECGDKGCDGPNADQCLNCVHFSLGSVKTSRKCVSVCPLGYFGDTAARRCRRCHKGCETCSSRAATQCLSCRRGFYHHQEMNTCVTLCPAGFYADESQKNCLKCHPSCKKCVDEPEKCTVCKEGFSLARGSCIPDCEPGTYFDSELIRCGECHHTCGTCVGPGREECIHCAKNFHFHDWKCVPACGEGFYPEEMPGLPHKVCRRCDENCLSCAGSSRNCSRCKTGFTQLGTSCITNHTCSNADETFCEMVKSNRLCERKLFIQFCCRTCLLAG
modifications: C-terminal FLAG tag
PCSK6-mediated activation cleavage (corin variant T555I): detected | PCSK6-mediated corin activation, reduction vs. WT (in words) [1]: markedly reduced
